{"source": "the DeepSol protein solubility set", "data": [{"assay": "soluble on expression in E. coli; label from the status in PepcDB or PDB records", "values": [{"sequence": "MKLLHTADLHMDRSFEGLTGIPTALAKRLREANQQLLMNIVTVAIREAVDLVIFAGDTFHQSQTSISMQAQLMAALEQLKQAEIPVILTFGNHDYYKKDRYWFSFPDNVFLFEKEMVETLYFETKAGEQVAVSGFSYEHPWIDENKALEFPIKQAESDIHIGIYHGDTSRKAQQNYAPFTWKDLKATGYNYWALGHIHQPQIVSEQPLIVYPGTPQGHTKKEQSLQGVAVVTLSQNQATVQFEKVAEIDWTNEEVSLAQCRDTQSVLSYLETSLLTKWQAHQQQQLMALTLKETQHLDVTVVQAIVNGELLSYLQQQLLQKTQGDFFVYRLILQAEEPTKEPIYLAASPNLLTALEKTYLDPVIFEDTTKELLRYPEFAGIFSMDEQWRLESLRLAHEQINEDFTIQEDPL", "soluble on expression in E. coli": "not soluble"}, {"sequence": "PKPLKNLDGQFCEICGDQIGLTVEGDLFVACNECGFPACRPCYEYERREGTQNCPQCKTRYKRLRGSPRVEGDEDEEDID", "soluble on expression in E. coli": "soluble"}, {"sequence": "VAVTCRVLKLARQPYYRWRAHPVTDAEIVEAYRANALFDAHKDDPEFGYRYLVEEARDAGEPMAERTAWRICSQQGLWSVFGKKRGKNGKPGPPVHDDLVERDFTASEPNALWLSDITEHRTGEGKLYLCAIKDVFSNRIVGYSIDSRMKSRLATAALSSAVARRGDVDGCILHSDRGSQFRSRKFVHALHHHGMVGSMGRVGAAGDNAAMESFFSLLQKNVLDRRRWDTREQLRIAIVIWIERTYHRRRRQLTLGRLTPIEFEAIMTTPASQAA", "soluble on expression in E. coli": "soluble"}, {"sequence": "MSGSHHHHHHSSGIEGRGRLQTRQDVLYLYNWTYYTPTSLIKKFEQQYNVQVVYDDYASNEDMFAKLSIGASGYDLVVPSGDFVSIMKRKHLLEKIDLSKIPNVQFIKESVRARIAYDPKMEYSVPYYLGAAGIAVNKKAVPSYARTWSIFSRKDLAYRMSMMDDMREVMGAALASLGYNVNTKNEQELAQAAILVTDHWKPNLVKFDSDGYAKSFASGDFVVAHGFAEAFFAETPEAMHEHIDFFIPQDVASPVYVDSFCIPKGARNRDLAHAFINFFLEPAHYAEFLDTFGFPSTIHREAAAYQKKTPYYSEHDLERGTLKTDVGAAIEHYNAHWNAVRFR", "soluble on expression in E. coli": "soluble"}, {"sequence": "MTSIAISSGSFDPITLGHLDIIKRGAKVFDEVYVVVLNNSSKKPFFSVEERLDLIREATKDIPNVKVDSHSGLLVEYAKMRNANAILRGLRAVSDFEYEMQITSMNRKLDENIETFFIMTNNQYSFLSSSIVKEVARYGGSVVDLVPPVVERALKEKFQTPLK", "soluble on expression in E. coli": "not soluble"}, {"sequence": "MKFTDKTTQADTQRTITKDGFLVVPATISKVGVFDYLATELGLKEDGIKKVARTEKSLFSDETIKSFENATLTVGHLKDGVNAKNWKQLSVGVVRNVKRVGDELTAEAWIYDEQAIKTVQEHGVEQLSCGYDCDIKPSTVQDADFEMSPMIGNHVAIVAKGRCGGSVKLADEDKTIMGKTAKILDAFLGAFGIKLSDEQKKQIEDEEKSGSEEGKEPKGEQPTKPKEKKSEPENKKEDDVEKEELEKSLKAKDEEIQQLKDAQAKRDAEVKQAAVLADAKTAFKEVNFADNATVREIQESAVVAQGIFTKDEAAKLSDEEISGAYQTAKVVVAKLADERKSLGNILLGDAEPKAAPKIDFNKTYNS", "soluble on expression in E. coli": "not soluble"}, {"sequence": "MGSDKIHHHHHHMKLLLTRPEGKNAAMASALDALAIPYLVEPLLSVEAAAVTQAQLDELSRADILIFISTSAVSFATPWLKDQWPKATYYAVGDATADALALQGITAERSPADSQATEGLLTLPSLEQVSGKQIVIVRGKGGREAMADGLRLRGANVSYLEVYQRACPPLDAPASVSRWQSFGIDTIVVTSGEVLENLINLVPKDSFAWLRDCHIIVPSARVETQARKKGLRRVTNAGAANQAAVLDALGM", "soluble on expression in E. coli": "not soluble"}, {"sequence": "MGSDKIHHHHHHMRTSTHAEVLTYSDEQTSVRHLQNSAPLALKHTISPAEIRDNLPAGQGGVGFLFHATDWDTLSFSFHNVKHRNASFEEELWRTKPFIASPIYSGSQIIGANIACPVPLELWLGSPRGIKRFRETQFFPALELARQAGLNMVAMGASTPYACNYGALPRDTRPPHITTGHAATAAMLKDWAMHCCNELDLEFGKSKLALFGAAGRLGTTVAKYALYKDAPRELVLIDLPDKVNLLTEQAKELMASDLLGKTRVSVHTFSPHTPLPDFDGAILASSTSVPYLTAADLRRAQFWIDDSHPRAASVEAELASRGHTLYIECFARGPAGLNTTFPFRLPTTRDCYTCFAEGYSAWQEGIASDFIIGSPPVWSVSYTHSLLKKYGFAVGPFHGKNGSPITLDTQLRGKQELMSS", "soluble on expression in E. coli": "not soluble"}, {"sequence": "MLIANEVYHALNLEEVWFLPNQIPPHKQGRDITSVESRLQMLELATEAEEHFSICLEELSRKGPSYTYDTMLQLTKKYPDVQFHFIIGGDMVEYLPKWYNIEALLDLVTFVGVARPGYKLRTPYPITTVEIPEFAVSSSLLRERYKEKKTCKYLLPEKVQVYIERNGLYES", "soluble on expression in E. coli": "not soluble"}, {"sequence": "MGHHHHHHSHMAHYLFNPFYLRLDCDLSKAYIHRIFASFYMEKEADAHTNEKRSKPMTQQYIVEPKKGLGLKLKKGQILKVVDVEGQQVADFVAYHAKDSYEHLDQGATIDAIHSIHVKVSDHLYSNPVLSRWLPLIEDTGPASMICCWPACRPDIEQALIWEAKRMSFRIRAMTICAVRLSSLAYRSPTCITHLRYCMDTVLDEEGNLSVETPLSDAGDYVRLRAEMDLIVAFSSCPRCNRDIQWRQCDIHTG", "soluble on expression in E. coli": "not soluble"}, {"sequence": "MVKVGIIGGSGLEDPNILLDPVTVAVDTPYGKPSDDVVEGTINGVECVLLARHGRKHDIMPGNVNFRANLWALYSRGVDVIIASTACGSLQENVEPGHLLFPDSVFDRTTGRQSTFFDGSYDQAPGVCHIQAHPTYNEKLRQVLISTAERCQLVHHRTGFGVCIEGPRFSTKAESMVFKSWGASLVNMTMMPECILAKELGIPYATTALVTDYDCWKEEDHVTASSVMKVFAANVEKAKTLFVEAVGEIGKIDWSAEILKLKTEARESVMISPDVVIPFLTTDNQKKF", "soluble on expression in E. coli": "not soluble"}, {"sequence": "MQKVEGIIFDMDGVLFDSERISLEFWMETFEKYGYTMTKEIYTSVMGRNRKGIIEGLTDIYDSSVPIIDLYDEKTKNMIEFMERKGAPIKLGVNELISFLKENGYKMAVATSTKRERAVKRLAKANLKDYFDAIVCGDDVVNSKPNPEIFLKAAKKINVNPKNCIVIEDSPMGVEAAYNGGIRCINVPDLKEPDEQIKSQSHKILENLLEVREYLKSLNSKECHNL", "soluble on expression in E. coli": "not soluble"}, {"sequence": "MGSDKIHHHHHHACDGILEGIYDSPAASDSNELGFIRTDPSTHSGTIYIDATDYRRWTFIDFHTQKVDSVNVTDSEQKEPEEWDIAVHRYDVKTNAGAVLETGFTGFSALRNADAMPEGAYVEDVWTTAKIAIDMSGMMDGNIVYMESYYNEELSKWLNVDKSNMPPTYTLSNKVYMVKLKDGTYAAVRLTNYMNASGVKGFMTIDYIYPFEL", "soluble on expression in E. coli": "not soluble"}, {"sequence": "MSLRQKQKEGGTYSPQDAEIIDTKLKLDQLITVADLELKDERLTRMTVMAATEKFQIMKKELPKFLQDLSSTDADLPWNRAKNRFPNIKPYNNNRVKLIADASVPGSDYINASYISGYLCPNEFIATQGPLPGTVGDFWRMVWETRAKTLVMLTQCFEKGRIRCHQYWPEDNKPVTVFGDIVITKLMEDVQIDWTIRDLKIERHGDCMTVRQCNFTAWPEHGVPENSAPLIHFVKLVRASRAHDTTPMIVHCSAGVGRTGVFIALDHLTQHINDHDFVDIYGLVAELRSERMCMVQNLAQYIFLHQCILDLLSNKGSNQPICFVNYSEGHHHHHH", "soluble on expression in E. coli": "soluble"}, {"sequence": "MSEVKVITGTSAAAEAAKLADVDVIAAYPITPQTTCVEKLADFVANGELNAEYIKVESEHSAMSASIAASATGARTFTATSSQGLALMHEVLFAAAGMRVPVVMMNANRALSAPINIWNDQQDSLSQRDTGWIQLYAEDNQEVLDLVIQAFKIAEDEKVLLPVMVNLDGFILTHTVEPVTLPKQESVLDFIGSYEPKHAYLDPKKPMTQGSLGDPNYYMETRYAIETAMRNAEKVIADVHDAFAEKFNRAYGNGLIESYNLEKAENVIVAMGSICGTIKDMIDLKKKEGVEIGLLKIRCYRPLPVEMIKDALKNAKNVAILDKSISLGMNKGAIYADVASFLKDKKTVNYIVGLGGRDITPEDILGIYVDVETSEDGKTNWVGLKEE", "soluble on expression in E. coli": "not soluble"}, {"sequence": "MDLISGEADPSESRAAERPGTAPLQGLVTFNRLELNRILNLYGRMVAAGEWRDYAIDFLKDTAVFSIFRRASEVPIYRIVKDPRLARKQGAYSVIGASGQILRRGHELERVLLVIDRKLALV", "soluble on expression in E. coli": "not soluble"}, {"sequence": "MRDFLNTKNQTNQSVYLAILRIKMKTPYQIQFEAFNADDFYTEAHAKLYAQFADNLINEGNYSIVYKGVAHACYTPITIDKAPHLKCFVLAPLAVLPEHQGKGYATQLMEQAESELGADVIFVLGDPKHYARRFNAQHNVALPIGSDESPDFWFARELTTDALDGIGQSSSTIKGVFADPIMWSHPDEQI", "soluble on expression in E. coli": "not soluble"}, {"sequence": "MSQLNDSDIILFEYNFHYQNIRSKNTLDIAFGIDRNFLFGCGVAIASILLNNREISCEFHVFTDYISDKDKLYFSDLAKQYNSRINIYVINCDKLKSLPSTKNWTYATYFRFIIADYFYHKHEKILYLDADIACKGSIKELLDYQFSTNEIAAVVAERDVEWWQNRASVLTTPQLASGYFNAGFLLINIDEWNLNNISSKAIEMLRDPDWVSKITHLDQDVLNVLLNGKVKFISEKYNTRYSINYELKDKVDNPVNDDTVFIHYVGPTKPWHEWADYPVSRSFLIAKAASPWSKEDLLKPVNSNQYRYCAKHKFKQKHYMAGIFNYLKYYKEKCF", "soluble on expression in E. coli": "not soluble"}, {"sequence": "SAGTGLVAGEVVVDALPYFDQGYEAPGVREAAAALVEEETRRYRPTKNYLSYLTAPDYSAFETDIMRNEFERLAARQPIELLSMKRYELPAPSSGQKNDITAWQECVNNSMAQLEHQAVRIENLELMSQHGCNAWKVYNENLVHMIEHAQKELQKLRKHIQDLNWQRKNMQLTAGSKLREMESNWVSLVSKNYEIERTIVQLENEIYQIKQQHGEANKENIRQDF", "soluble on expression in E. coli": "soluble"}, {"sequence": "GHLDDNVTQEDIQAMLQEGSSAGVIEHNEHAMVKNVFRLDERTISSLMVPRSDIVFLDLNLPLDANLRTVMQSPHSRFPVCRNNVDDMVGIISAKQLLSESIAGERLELVDLVKNCNFVPNSLSGMELLEHFRTTGSQMVFVVDEYGDLKGLVTLQDMMDALTGEFFQEDGS", "soluble on expression in E. coli": "soluble"}, {"sequence": "MFVDQVKVYVKGGDGGNGMVAFRREKYVPKGGPAGGDGGKGGDVVFEVDEGLRTLMDFRYKKHFKAIRGEHGMSKNQHGRNADDMVIKVPPGTVVTDDDTKQVIADLTEHGQRAVIARGGRGGRGNSRFATPANPAPQLSENGEPGKERYIVLELKVLADVGLVGFPSVGKSTLLSVVSSAKPKIADYHFTTLVPNLGMVETDDGRSFVMADLPGLIEGAHQGVGLGHQFLRHIERTRVIVHVIDMSGLEGRDPYDDYLTINQELSEYNLRLTERPQIIVANKMDMPEAAENLEAFKEKLTDDYPVFPISAVTREGLRELLFEVANQLENTPEFPLYDEEEL", "soluble on expression in E. coli": "soluble"}, {"sequence": "MAHHHHHHMDSQTPHGDVVDEATMAVLPEHGLIFSEIKQMQLLLCKPKLLPVKSYSLEKLEKMEKKLAREAKEKRDANRAQRQAPLVWTSPDLTAGEGVKTIPAPSPLVTVAPAPPQNVASTPLRDGGATPPSAAPAVASSASSRGAASQETLSFTPVHTEGETCADASMSAPERSPRISPSTDVSSSSPSPSASTTD", "soluble on expression in E. coli": "soluble"}]}]}
